Laboratory results taken from the nanobody polyreactivity screen of Harvey et al. (2022).

Experiment: yeast display, Sf9 membrane polyspecificity reagent, FACS + sequencing; frameworks hold sequencing errors
Outline: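 Galactose-induced (36–48 hours) yeast carrying a synthetic nanobody display library were exposed to 10% biotinylated, detergent-solubilized Sf9 membrane reagent at 4 °C for 1 hour. FACS followed streptavidin microbead enrichment, using low and high (top ~1%) gates for expression (anti-HA) and reagent binding (streptavidin). Colony PCR, MiSeq 2 × 250 sequencing and CDR-length filtering followed. Labels for polyreactivity reflect the gate of origin.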

Row | Sequence | polyreactivity (PSR sort gate)
1 | QVQLVESGGGLVQAGGSLRLSCAASGSIFDRYALGWYRQAPGKERELVAAISTGGSTNYADSVKGRFTISRDNAKNTVYLQMNSLKPEDTAVYYCAAASPYHEYDYWGQGTQVTVSS | low polyreactivity
2 | QVQLVESGGGLVQAGGSLRLSCAASGSIFDRYAMGWYRQAPGKERELVAAISRSGGSTYYADSVMGRFTISRDNAKNTVYLQMNSLKPEDTAVYYCAAYQHPGLRTSYEYWGQGTQVTVSS | low polyreactivity
3 | QVQLVESGGGLVQAGGSLRLSCAASGSIFDRYAMGWYRQAPGKERELVAAISTGGSTNYADSVKGRFTISRDNAKNTVYLQMNSLKPEDTAVYYCAAERYWVFHGTISYKYDYWGQGTQVTVSS | low polyreactivity
4 | QVQLVESGGGLVQAGGSLRLSCAASGSIFDSNAMGWYRQAPGKERELVAAITGSGSTNYADSVKGRFTISRDNAKNTVYLQMNSLKPEDTAVYYCNAQAPYTEFDYWGQGTQVTVSS | low polyreactivity
5 | QVQLVESGGGLVQAGGSLRLSCAASGSIFDSNAMGWYRQAPGKERELVAAITGSGTSTYDADSVKGRFTISRDNAKNTVYLQMNSLKPEDTAVYYCAAAPEYLTDHDYWGQGTQVTVSS | low polyreactivity
6 | QVQLVESGGGLVQAGGSLRLSCAASGSIFDSNAMGWYRQAPGKERELVAVITGSGGITYYADSVKGRFTISRDNAKNTVYLQMNRLKPEDTAVYYCYADYYLSEDGTWIYDYWGQGTQVTVSS | high polyreactivity
7 | QVQLVESGGGLVQAGGSLRLSCAASGSIFDSYVMGWYRQAPGKERELVAAITYSGGSTYADSVMGRFTISRDNAKNTVYLQMNSVKPEDTAVYYCAAASYFYLYLLEDYWGQGTQVTVSS | low polyreactivity
8 | QVQLVESGGGLVQAGGSLRLSCAASGSIFDTYAMGWYRQATGKERELVSTISWSGDSKYYADSVKGRFTISRDNAKNTVYLQINSLKPEDTAVYYCAADVGQVWDHEDYDYWGQGTQVTVSS | low polyreactivity
9 | QVQLVESGGGLVQAGGSLRLSCAASGSIFDVNAMGWYRQATGKERELVAAISDSGGSTYYADSVKGRFTISRDNAKNTVYLQMNSLKPEDTAVYYSNADWSWYNYYDFDYWGHGTQVTVSS | low polyreactivity
10 | QVQLVESGGGLVQAGGSLRLSCAASGSIFDVNSMGWYRQAPGKERELVAAISDSGGSTYYADSVKGRFTISRDNAKNTVYLQMNSLKPEDTAVYYCNADWSWYNYYDFDYLGQGTQVTVSS | low polyreactivity
11 | QVQLVESGGGLVQAGGSLRLSCAASGSIFDVNTMGWYSQAPGKERELVAGITSRGGSTYYADSVKGRFTISRDNAKNTVYLQMNSLKPEDTAVYYCAKRAYGTALYRGYGYWGQGTQVTVSS | low polyreactivity
12 | QVQLVESGGGLVQAGGSLRLSCAASGSIFDVYAMGWYRQAPGKERELVAAIDSGGSSTYYADSVKGRFTISRDNAKNTVYLQMNSLKPEDTAVYYCAARPYYSWNYDYWGQGTQVTVSS | low polyreactivity
13 | QVQLVESGGGLVQAGGSLRLSCAASGSIFDVYAMGWYRQAPGKERELVAAITFDGGSTYYADSVKGRFTISRDNAKNTVYLQMNSLKPEDTAVYDCNAEFYFLWDWQSFDYWGQGTQVTVSS | high polyreactivity
14 | QVQLVESGGGLVQAGGSLRLSCAASGSIFDVYTMGWYRQAPGKERELVAAISQSTGSTYYAASVKGRFTISRDNAKNTVYLQMNSLIPEDTAVYYCNAKFRFVTYKTPYVFWGQVTQVTVSS | low polyreactivity
15 | QVQLVESGGGLVQAGGSLRLSCAASGSIFDWYAMGCYRQAPGKEGELVAAISSGDSTYYADSVKGRFTISRDNAKNTVYLQMNSLKPEDTAVYYCAAVTKLSGIRYNYWGQGTQVTVSS | low polyreactivity
16 | QVQLVESGGGLVQAGGSLRLSCAASGSIFDYNAMGWNRQAPGKETELVAAITSTDSTYADSVKGRFTISRDNAKNTVYLQMNSLKPEDTAVYYCAAEDVIYYLTGQWREYDYWGQGTQVNVSS | low polyreactivity
17 | QVQLVESGGGLVQAGGSLRLSCAASGSIFDYNAMGWYRQAPGKERELVAAINYSGTRTYYADSVKGRFTISRDNAKNTVYLQMNSLKPEDTADYYCAARVRVPQTARLHEYWGQGTQVTVSS | high polyreactivity
18 | QVQLVESGGGLVQAGGSLRLSCAASGSIFDYNAMGWYRQAPGKERELVAAISSGGSTYYADSVKGRFTISRDNAKNTVYLQMNSLKPEDTAVYYCAVKFWYHIYDYWGQGTQVTVSS | low polyreactivity
19 | QVQLVESGGGLVQAGGSLRLSCAASGSIFDYNTMGWYRQAPGKERELVAAISSNGGSTYYADSVKGRFTISRDNAKNTVYLQMNSRNPEDTAVYYCAVSIYVYHLDLEYWGQGTQVTVSS | low polyreactivity
20 | QVQLVESGGGLVQAGGSLRLSCAASGSIFDYYAMGWYRQAPGKERELVAAISESSDSTYYADSVKGRFTISRDNAKNTVYLQMNSLKPEDTAVYYCAAYRGTLLTAYDYWGQGTQVTVSS | low polyreactivity
21 | QVQLVESGGGLVQAGGSLRLSCAASGSIFDYYDMGWYRQAPGKERELVAAINWSGGITYYADSVKGRFTISRDNAKNTVYLQMNSLKPEDTAVYYCAADWYQWVYSSSITSFDYWGQGTQVTVSS | low polyreactivity
22 | QVQLVESGGGLVQAGGSLRLSCAASGSIFDYYTMGWYRQAPGKERELVAAISWSGGSTYYADSVKGRFTISRDNAKNTVYLQMNSLKPEDTAVYYCNAVGYSRYTVWSYYYWGQGTQVTVSS | high polyreactivity

Row | Sequence | polyreactivity (PSR sort gate)
23 | QVQLVESGGGLVQAGGSLRLSCAASGSIFEANDMGWYRQAPGKERELVAAIDANTGSTYYADSVKGRFTISRDNAKNTVYLQMNSLKPEDTAVYYCNAQVYLHTAYDYWGQGTQVTVSS | low polyreactivity
24 | QVQLVESGGGLVQAGGSLRLSCAASGSIFEAYVMGWYRQAPGKQRELVAAITTGGGSTYYADSVKWRFTISRDNAKNTVYLQMNSLKPEDTAVYYCGKDYWFGYEYWGQGTQVTVSS | low polyreactivity
25 | QVQLVESGGGLVQAGGSLRLSCAASGSIFEDYAMGWYRQAPGKERELVAGINWSGGSTYYADSVKGRFTISRDNAKNTVYLQMNSLKPEDTAVYYCAAKAFYYYYTEHDYWGQGTQVTVSS | high polyreactivity
26 | QVQLVESGGGLVQAGGSLRLSCAASGSIFEEYAMGWYRQAPGKERELVARIDESGGSTYYADSVKGRFTISRDNAKNTVYLQMNSLKPEDTAVYYCAAERYSDSWGYYSVDEGSWEMDYWGQGTQVTVSS | low polyreactivity
27 | QVQLVESGGGLVQAGGSLRLSCAASGSIFEGNGMGWYRQAPGKERELVASITRSGGSTYYADSVKGRFTISRDNAKNTVYLQMNSLKPEDTAVYYCAVSRDSYGGKGSVLYDYWGQGTQVTVSS | low polyreactivity
28 | QVQLVESGGGLVQAGGSLRLSCAASGSIFEGNGRGWYREAPGKDRELVAAITFRSGSTYYADSVKGRFTISRDNAKNTVYLQMNSLKPEDTAVYYCAADEYYQVSAYDYWGQGTQVTVSS | low polyreactivity
29 | QVQLVESGGGLVQAGGSLRLSCAASGSIFEGSVMGWSRQAPGKEREWVATISFSGGSTYYADSVKGRFTISRDNAKNTLYLQMNSLKPEDTAVYYCNALVYHTKGDYGYWGQGTQVTVSS | low polyreactivity
30 | QVQLVESGGGLVQAGGSLRLSCAASGSIFEGYAMGWYRQAPGKERELVAAISRSGGSTYYADSVKGRFTISRDNAKNTVYLQMNSLKPEDTAVYYCAARKAIDYQGRHDHWGQGTQVTVSS | low polyreactivity
31 | QVQLVESGGGLVQAGGSLRLSCAASGSIFEGYSMGWYRQAPAKERELVARITSDDDSTYYADSVKGRFTISRDNAKNTVYLQMNSLKPEDSAVYYCNADYYWTSLAMDSWGQGTQVTVSS | low polyreactivity
32 | QVQLVESGGGLVQAGGSLRLSCAASGSIFEGYVMGCDIQAPGKERELVATISFSGGSTYYADSVKGRFTISRDNAKNTVYLQMNSLKPEDTAVYYCNALVYHTKGDYGYWGQGTQVTVSS | low polyreactivity
33 | QVQLVESGGGLVQAGGSLRLSCAASGSIFELNAMGWYRQAPGKERELVAAIRWRTGRTYYADSVKGRFTISRDNAKNTVYLQMNSLKPEDTAVYYCAAPVRSGVRYTLDYWGQGTQVTVSS | high polyreactivity
34 | QVQLVESGGGLVQAGGSLRLSCAASGSIFELNAMGWYRQAPGKERELVAAITSSGSSTYYADSVKGRFTISRDNAKNTVYLQMNSLKPEDTAVYYCFRPHDYWGQGTQVTVSS | low polyreactivity
35 | QVQLVESGGGLVQAGGSLRLSCAASGSIFEPYTMGWYRQAPGKERELVAAITGSGCSKFYADSVKGRFTISRDNAKNTVYLQMNSLKPEDTGVYYCNAYAYPYTDVDYWGQGTQVTVSS | low polyreactivity
36 | QVQLVESGGGLVQAGGSLRLSCAASGSIFEPYVMGWYRQAPGKERELVAAIRQTGGSTYYADSVKGRFTISRDNAKNTVYLQMNSLKPEDTAVYYCNAEQNPSALYDYRGVEGEMGYWGQGTQVTVSS | low polyreactivity
37 | QVQLVESGGGLVQAGGSLRLSCAASGSIFEQYAMGWYRQAPGKERELVAGINWSTGSTYYADSVKGRFTISRDNAKNTVYLQMNSLKPEDTAVYYCAAEVAGALSDYDYWGQGTQVNVSS | low polyreactivity
38 | QVQLVESGGGLVQAGGSLRLSCAASGSIFEQYTMGWYRQAPGKERELVAAISYSGGRTYYADSVKGRFTISRDNAKNTVYLQMNSLKPEDTAVYYCATRGRDRRIYGYWGQGTQVTVSS | high polyreactivity
39 | QVQLVESGGGLVQAGGSLRLSCAASGSIFERYALGWYSQAPGKEREMVAAITWTGGRTYYADSVKGRFTISRDIAKNTVYLQMNSLKPEDTAVYYCARSYTRRGYDYWGLGTQVTVSS | high polyreactivity
40 | QVQLVESGGGLVQAGGSLRLSCAASGSIFESNGMGCYRQAPGKERELVASISNGDITYFADSVKGRFTISRDNAKNTVYLQMNSLKPEDTAVYYCAATLYRNYVIFRYDYSGQGTQVTVSS | low polyreactivity
41 | QVQLVESGGGLVQAGGSLRLSCAASGSIFEVYAMGWYRQAPGKDRELVAAITSSDITYYADSVKGRFTISRDNAKNTVYLQMNSLKPEDRAVFYCNAEPPYRVKRSDYWGQGTQVTVSS | low polyreactivity
42 | QVQLVESGGGLVQAGGSLRLSCAASGSIFEWNDMGWYRQAPGKEREFVAAITSTDDGTYYADSVKGRFTISRDNAKNTVYLQMNSLKPEVTAVYYCAVDYWDVPYYWGQGTQVTVSS | low polyreactivity
43 | QVQLVESGGGLVQAGGSLRLSCAASGSIFEWYAMGWYRQAPGKERELVADISSVGSTYYADSVKGRFTISRDNAKNTVYLQMNSLKPEDTAVYYCNTTYIIWYDSWGQGTQVTVSS | low polyreactivity
